The assay addresses T1, ovalbumin (UniProt P01012 2-386).
T1 sequence (looked up): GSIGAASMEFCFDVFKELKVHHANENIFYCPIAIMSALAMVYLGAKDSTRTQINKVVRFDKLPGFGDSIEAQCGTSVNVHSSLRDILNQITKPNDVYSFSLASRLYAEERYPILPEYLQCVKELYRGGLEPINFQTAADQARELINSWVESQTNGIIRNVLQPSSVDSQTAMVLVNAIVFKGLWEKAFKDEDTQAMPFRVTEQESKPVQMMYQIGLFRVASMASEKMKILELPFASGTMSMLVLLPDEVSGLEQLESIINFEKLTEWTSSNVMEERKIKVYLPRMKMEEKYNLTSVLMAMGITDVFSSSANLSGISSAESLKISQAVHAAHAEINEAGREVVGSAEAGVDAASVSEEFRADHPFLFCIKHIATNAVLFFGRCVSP
Nature of the assay: phage ELISA, anti-HA or anti-M13 detection. Background: An ELISA detects its analyte on a solid surface through an enzyme-linked reagent.

B1: 2G12 domain exchanged Fab fragment displayed on phage, expressed from the 2G12 pCAL G13 vector (SEQ ID NO: 11) (Fab, not shown: small tags and cut ends; large carriers)
heavy 1: EVQLVESGGGLVKAGGSLILSCGVSNFRISAHTMNWVRRVPGGGLEWVASISTSSTYRDYADAVKGRFTVSRDDLEDFVYLQMHKMRVEDTAIYYCARKGSDRLSDNDPFDAWGPGTVVTVSPASTKGPSVFPLAPSSKSTSGGTAALGCLVKDYFPEPVTVSWNSGALTSGVHTFPAVLQSSGLYSLSSVVTVPSSSLGTQTYICNVNHKPSNTKVDKKVEPKSCLRYPYDVPDYA
heavy 2: EVQLVESGGGLVKAGGSLILSCGVSNFRISAHTMNWVRRVPGGGLEWVASISTSSTYRDYADAVKGRFTVSRDDLEDFVYLQMHKMRVEDTAIYYCARKGSDRLSDNDPFDAWGPGTVVTVSPASTKGPSVFPLAPSSKSTSGGTAALGCLVKDYFPEPVTVSWNSGALTSGVHTFPAVLQSSGLYSLSSVVTVPSSSLGTQTYICNVNHKPSNTKVDKKVEPKSCLRYPYDVPDYA
light: AGVVMTQSPSTLSASVGDTITITCRASQSIETWLAWYQQKPGKAPKLLIYKASTLKTGVPSRFSGSGSGTEFTLTISGLQFDDFATYHCQHYAGYSATFGQGTRVEIKRTVAAPSVFIFPPSDEQLKSGTASVVCLLNNFYPREAKVQWKVDNALQSGNSQESVTEQDSKDSTYSLSSTLTLSKADYEKHKVYACEVTHQGLSSPVTKSFNRGEC
notes: also called 2G12 Fab; 2G12 alone
Take B1: the binding result was “no binding”.

B2: 2G12 domain exchanged Fab fragment displayed on phage, expressed from the 2G12 pCAL A1 vector (SEQ ID NO: 217) (Fab)
heavy 1: EVQLVESGGGLVKAGGSLILSCGVSNFRISAHTMNWVRRVPGGGLEWVASISTSSTYRDYADAVKGRFTVSRDDLEDFVYLQMHKMRVEDTAIYYCARKGSDRLSDNDPFDAWGPGTVVTVSPASTKGPSVFPLAPSSKSTSGGTAALGCLVKDYFPEPVTVSWNSGALTSGVHTFPAVLQSSGLYSLSSVVTVPSSSLGTQTYICNVNHKPSNTKVDKKVEPKSCLR
heavy 2: EVQLVESGGGLVKAGGSLILSCGVSNFRISAHTMNWVRRVPGGGLEWVASISTSSTYRDYADAVKGRFTVSRDDLEDFVYLQMHKMRVEDTAIYYCARKGSDRLSDNDPFDAWGPGTVVTVSPASTKGPSVFPLAPSSKSTSGGTAALGCLVKDYFPEPVTVSWNSGALTSGVHTFPAVLQSSGLYSLSSVVTVPSSSLGTQTYICNVNHKPSNTKVDKKVEPKSCLR
light: AGVVMTQSPSTLSASVGDTITITCRASQSIETWLAWYQQKPGKAPKLLIYKASTLKTGVPSRFSGSGSGTEFTLTISGLQFDDFATYHCQHYAGYSATFGQGTRVEIKRTVAAPSVFIFPPSDEQLKSGTASVVCLLNNFYPREAKVQWKVDNALQSGNSQESVTEQDSKDSTYSLSSTLTLSKADYEKHKVYACEVTHQGLSSPVTKSFNRGEC
As for B2, the binding result was “no binding”.

Source of the values: patent publication US20100081575A1 (published 2010).
